# Laboratory results from article PMC8253979, “The C-terminal tail extension of myosin 16 acts as a molten globule, including intrinsically disordered regions, and interacts with the N-terminal ankyrin” (The Journal of Biological Chemistry, 2021).
# T1: Myo16Tail without the IQ motif, Myo16Tail (−IQ), His6-tagged (Rattus norvegicus, UniProt Q9ERC1 1176-1912)
# T1 construct: Myosin 16 (Myo16b isoform), Rattus norvegicus, UniProt Q9ERC1, residues 1176-1912 (tail without the IQ motif); Cloned into the pFastBac vector as m1; No removal of the His6 tag is described; also called His6–Myo16Tail (−IQ); source: baculovirus/Sf9, purified by the denaturing procedure (Ni-NTA), renatured
# T1 sequence (looked up): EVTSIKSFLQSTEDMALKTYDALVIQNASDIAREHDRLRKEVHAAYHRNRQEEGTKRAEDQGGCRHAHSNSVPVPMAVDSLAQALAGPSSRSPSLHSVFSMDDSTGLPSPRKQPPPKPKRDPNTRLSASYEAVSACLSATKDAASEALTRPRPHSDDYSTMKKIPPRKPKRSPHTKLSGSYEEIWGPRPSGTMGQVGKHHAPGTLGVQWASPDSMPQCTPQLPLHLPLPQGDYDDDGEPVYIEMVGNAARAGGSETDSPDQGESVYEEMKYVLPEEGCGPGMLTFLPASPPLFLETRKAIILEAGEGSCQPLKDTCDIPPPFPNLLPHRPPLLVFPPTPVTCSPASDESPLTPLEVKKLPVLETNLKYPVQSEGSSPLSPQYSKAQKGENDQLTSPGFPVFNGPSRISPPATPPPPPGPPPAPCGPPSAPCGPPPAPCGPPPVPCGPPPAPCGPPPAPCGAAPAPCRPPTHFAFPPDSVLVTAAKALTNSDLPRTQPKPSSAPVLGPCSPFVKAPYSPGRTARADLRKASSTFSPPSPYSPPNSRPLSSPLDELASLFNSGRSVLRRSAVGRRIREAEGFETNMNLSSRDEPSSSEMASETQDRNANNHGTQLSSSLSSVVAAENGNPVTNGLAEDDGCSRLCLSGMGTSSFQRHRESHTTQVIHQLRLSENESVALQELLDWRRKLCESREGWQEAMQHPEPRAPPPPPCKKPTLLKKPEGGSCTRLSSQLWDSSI
# T2: myosin 16 C-terminal tail (Myo16Tail), His6-tagged, with the IQ motif (Rattus norvegicus, UniProt Q9ERC1 1146-1912)
# T2 construct: Myosin 16 (Myo16b isoform, 1912 aa), Rattus norvegicus, UniProt Q9ERC1, residues 1146-1912: IQ motif, NHM, proline-rich region and C-terminal element; cloned into pFastBac; No removal of the His6 tag is described; also called His6–Myo16Tail; C-terminal tail extension of Myo16b; source: baculovirus/Sf9, purified under denaturing conditions (6 M GuHCl, 8 M urea, Ni-NTA), renatured by dialysis
# T2 sequence (looked up): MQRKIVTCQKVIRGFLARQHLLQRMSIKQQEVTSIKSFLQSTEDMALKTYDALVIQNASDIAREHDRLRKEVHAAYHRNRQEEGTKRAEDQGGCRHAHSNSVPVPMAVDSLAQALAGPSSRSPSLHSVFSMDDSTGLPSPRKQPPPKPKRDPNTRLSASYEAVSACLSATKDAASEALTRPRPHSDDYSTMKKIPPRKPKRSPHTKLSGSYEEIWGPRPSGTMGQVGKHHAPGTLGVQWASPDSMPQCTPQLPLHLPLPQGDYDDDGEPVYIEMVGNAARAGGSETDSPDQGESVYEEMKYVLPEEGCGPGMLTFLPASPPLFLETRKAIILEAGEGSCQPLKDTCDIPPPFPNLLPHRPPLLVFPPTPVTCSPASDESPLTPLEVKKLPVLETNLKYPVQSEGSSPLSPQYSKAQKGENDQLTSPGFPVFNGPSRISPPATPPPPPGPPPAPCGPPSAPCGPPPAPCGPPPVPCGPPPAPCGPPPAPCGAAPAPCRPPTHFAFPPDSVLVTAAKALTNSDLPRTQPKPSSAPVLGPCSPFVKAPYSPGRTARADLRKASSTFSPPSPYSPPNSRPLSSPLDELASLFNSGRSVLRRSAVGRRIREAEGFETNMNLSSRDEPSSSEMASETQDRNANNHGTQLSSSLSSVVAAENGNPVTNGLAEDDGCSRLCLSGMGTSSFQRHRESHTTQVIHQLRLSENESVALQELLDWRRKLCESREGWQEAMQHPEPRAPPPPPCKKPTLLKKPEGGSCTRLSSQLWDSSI
# T3: Alexa568-labelled synthesized rat myosin 16 IQ motif peptide (Alexa568–Myo16IQ) (Rattus norvegicus, UniProt Q9ERC1 1146-1175, Alexa Fluor C5 568 maleimide label, position not stated)
# T3 construct: Myosin 16 IQ motif, Rattus norvegicus, residues 1146-1175 (30 amino acids, MW 3.6385 kDa by mass spectrometry); source: synthetic peptide (GenScript)
# T3 peptide (looked up): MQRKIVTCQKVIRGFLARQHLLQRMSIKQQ
# Legend:
# Conditions in all cases: both partners purified
# [1] = biological target: T1, Myo16Tail without the IQ motif, …; experiment: fluorescence polarisation; steady-state fluorescence anisotropy; Alexa568–Myo16Ank fixed (1.2 μM with Myo16Tail, 1 μM with Myo16Tail (−IQ)), tail construct titrated; λex 578 nm, λem 601 nm; quadratic binding equation (Equation 1)
# [2] = biological target: T2, myosin 16 C-terminal tail (Myo16Tail), …; experiment: as above
# [3] = biological target: T3, Alexa568-labelled synthesized rat …; experiment: fluorescence polarisation; steady-state fluorescence anisotropy; Alexa568–Myo16IQ fixed (1 μM), Myo16Ank titrated; λex 578 nm, λem 601 nm; quadratic binding equation (Equation 1)
Kd [1],Kd [2],Kd [3],Binder
5.6 µM,2.5 µM,,"Alexa568-labelled N-terminal ankyrin domain of myosin 16 (Alexa568–Myo16Ank) (domain or fragment, Alexa Fluor C5 568 maleimide label, position not stated) MEIDQCLLESLPLGQRQRLVRRMRCEQIKAYYEREKVFQKQEGLLKRIKPGKSQKVRFGLADMIQDAIIHHHDKEVLQLLKEGADPHTLVSSGGSLLHLCARYDNVFIAEVLIDRGVNVNHQDEDFWAPMHIACACDNPDIVLLLILAGANVLLQDVNGNIPLDYAVEGTESSAILLAYLDENGVDLNSLRQIKLQRPLSMLTDVRHFLSSGGDVNEKNDDGVTLLHMACASGYKEVVLLLLEHGGDLNGMDDGYWTPLHLAAKYGQTTLVKLLLAHQANPHLVNCNGEKPSDIAASESIEEMLLKAEIAWEERMKESPSVPSLAQEELYEEILHDLPELSSKLSPLVLPIAKQDSLLEKDIMFKDTTKGLCNQESQDGPPETSMVSSSSKPEQVQLTPP"
,,16 µM,"N-terminal ankyrin domain of myosin 16 (Myo16Ank), unlabelled (domain or fragment) MEIDQCLLESLPLGQRQRLVRRMRCEQIKAYYEREKVFQKQEGLLKRIKPGKSQKVRFGLADMIQDAIIHHHDKEVLQLLKEGADPHTLVSSGGSLLHLCARYDNVFIAEVLIDRGVNVNHQDEDFWAPMHIACACDNPDIVLLLILAGANVLLQDVNGNIPLDYAVEGTESSAILLAYLDENGVDLNSLRQIKLQRPLSMLTDVRHFLSSGGDVNEKNDDGVTLLHMACASGYKEVVLLLLEHGGDLNGMDDGYWTPLHLAAKYGQTTLVKLLLAHQANPHLVNCNGEKPSDIAASESIEEMLLKAEIAWEERMKESPSVPSLAQEELYEEILHDLPELSSKLSPLVLPIAKQDSLLEKDIMFKDTTKGLCNQESQDGPPETSMVSSSSKPEQVQLTPP"
